For this data set, the target named is T1, Bruno-EGFP (BrunoFL-EGFP) (UniProt O02374).
T1 sequence: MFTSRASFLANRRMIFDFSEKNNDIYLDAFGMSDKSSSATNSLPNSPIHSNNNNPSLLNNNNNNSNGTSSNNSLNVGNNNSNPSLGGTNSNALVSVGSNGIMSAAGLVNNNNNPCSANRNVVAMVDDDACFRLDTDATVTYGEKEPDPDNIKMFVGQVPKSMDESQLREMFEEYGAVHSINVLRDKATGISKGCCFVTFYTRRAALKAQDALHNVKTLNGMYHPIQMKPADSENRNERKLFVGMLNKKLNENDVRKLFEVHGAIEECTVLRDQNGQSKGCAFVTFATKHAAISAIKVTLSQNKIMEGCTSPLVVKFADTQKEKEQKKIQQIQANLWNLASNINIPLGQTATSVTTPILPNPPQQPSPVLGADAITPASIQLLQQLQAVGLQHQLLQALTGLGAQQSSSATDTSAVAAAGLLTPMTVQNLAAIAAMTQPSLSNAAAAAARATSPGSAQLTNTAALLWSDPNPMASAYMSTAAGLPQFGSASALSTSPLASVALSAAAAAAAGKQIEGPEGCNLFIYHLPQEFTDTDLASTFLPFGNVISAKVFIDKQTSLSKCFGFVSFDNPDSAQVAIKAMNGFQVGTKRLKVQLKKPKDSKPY
The data set can be described thus: EMSA. The settings on record: EMSA: 50 nM RNA, 20 mM Tris-HCl pH 7.5, 150 mM NaCl, 2 mM MgCl2, 5% glycerol, 0.5 mM TCEP, 20 min at room temperature; 0.8% agarose 0.5x TBE gel at 4 C. Background: A gel shift assay detects complexes by their altered migration in electrophoresis.
In the case of “GGGUGGAAAAUUCGCUUGCACAAAAUCAACGCCGCGGCUGAUUUAUUAUUGAUGUGCUCAAGCAAAUUCA [WTOES (WT67)]”, the binding result is “no binding”. The same measure for “GGGAGUGAAGCAUUUGCGCGAUUUUCGUCUUUCUGUUUCCGUUUGCAAAAAAGUUUAUAAAAUGCUUACACUCUGCUGCAGACACGCCAACCGGAAGUGCGCACUAAGCGCUUGUUUGUAGCACAGUGUAGAAUUCUGGCGUAAUUUACAGCUCUACUUUAAAGUCUUCUAGAUAGCUAUCUACUAUUUAUAAACUUAUUUAUUGUCUUGAAUGUAUGUUAAUUGUAUGUAUUGAUGGUGAUCACGUUUUUUUUGUCCUAUAACAAGCUGCAAUGUAAAAUCCAAAAAAAAAAUG [oskar292]”: “binds”; for “GGGUGGAAAAUUCGCUUGCACAAAAUCAACGUUGCGGCUGAUUUAUUAUUGAUGUGCUCAAGCAAAUUCA [UUOES (UU67)]”: “no binding”.

Values taken from PMC11567897.
